Drawing on patent publication US20100203150A1, “Novel amphiphilic copolymers and fabrication method thereof” (priority 2009, published 2010), this text covers solubility for one substance.

The data set in a line: Solubility in common solvents and co-solvents. Conditions: some common organic solvents and co-solvents.

Consider “5′-deoxy-5-fluorouridine-poly(ε-caprolactone) [5′-DFUR-PCL]”, for which the solubility entry was “soluble”.
